± gives the uncertainty stated by the source.
Test: protein stability index of a GFP-peptide fusion (yeast GPS) (PSI 1-4); higher = more stable; sorted into four equal gates, so the index is relative within each strain
Procedure, shortened: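 Plasmids in a pooled yeast library fused tiled 17-residue yeast protein peptides downstream of GFP and also expressed Cherry. Mid-log cultures grown without leucine were sorted into four equal gates by GFP/Cherry fluorescence ratio. Each gate's plasmids were PCR-amplified and Illumina-sequenced, and reads were matched to strains by barcodes. The protein stability index is derived by multiplying each gate's read frequency by its gate number and summing the results.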

Row | Sequence | protein stability index (doa10∆) | protein stability index (pdr5∆) | protein stability index (san1∆) | protein stability index (ubr1∆)
1 | QARTATLKYICAECSSK [RPC10] | 2.72 ± 0.12 | 2.98 ± 0.1 | 2.84 ± 0.065 | 2.79 ± 0.073
2 | IITSGRDTREVLEERER [ARP9] | 3.41 ± 0.16 | 3.36 ± 0.14 | 3.52 ± 0.065 | 3.52 ± 0.1
3 | HIHDLEKFSPKSFISKL [SRP54] | 1.81 ± 0.044 | 2.12 ± 0.042 | 2.14 ± 0.064 | 2.36 ± 0.028
4 | DQIAVCEISGSIEQLRN [BRN1] | 3.27 ± 0.16 | 3.26 ± 0.19 | 3.11 ± 0.19 | –
5 | TIEKDKMKIQETISKLN [SMC2] | 1.71 ± 0.058 | 1.69 ± 0.044 | 1.94 ± 0.12 | 1.53 ± 0.038
6 | EKLLRHVDSLIEDFVDG [SRB7] | 3.2 ± 0.08 | 3.2 ± 0.083 | 3.22 ± 0.061 | 3.24 ± 0.057
7 | GKGIKLSIAEERDRRRA [RPS4A] | 2.59 ± 0.12 | 2.87 ± 0.16 | 3.35 ± 0.072 | 3.23 ± 0.09
8 | SKINSTELLDYATKLSK [MED4] | 2.79 ± 0.23 | 2.72 ± 0.12 | 2.49 ± 0.072 | 2.94 ± 0.15
9 | LEEITQYEHLIKGIREY [YDL116W/NUP84] | 2.35 ± 0.22 | 3.07 ± 0.13 | 2.94 ± 0.2 | 2.81 ± 0.14
10 | EVLEKDAAIVKKYKNKT [YGR119C/NUP57] | 3.15 ± 0.11 | 3.24 ± 0.087 | 3.16 ± 0.071 | 3.1 ± 0.096
11 | KTNIIEKAMDYAISIEN [RPN12] | 3.13 ± 0.18 | 3.25 ± 0.12 | 2.95 ± 0.1 | 3.45 ± 0.12
12 | KRLNGKRKYLDIPIDEM [SSN2] | 3.19 ± 0.13 | 2.97 ± 0.14 | 3.23 ± 0.078 | 3.14 ± 0.17
13 | IDQVMMSVSDNDQALIK [RET1] | 2.9 ± 0.054 | 3.06 ± 0.066 | 3.13 ± 0.048 | 3.01 ± 0.051
14 | GQVVLTPLTFALPRGAR [RPL14A] | 1.5 ± 0.074 | 1.55 ± 0.071 | 1.18 ± 0.11 | 1.89 ± 0.073
15 | IAKPNTANAKHTSSNSR [SMB1] | 2.93 ± 0.069 | 2.73 ± 0.094 | 2.72 ± 0.089 | 2.87 ± 0.067
16 | TSLATSAGQPNLLLSAS [ASC1] | 2.03 ± 0.06 | 1.93 ± 0.06 | 2.03 ± 0.062 | 1.99 ± 0.049
17 | LTFHTLKKANIIYHTTF [YLR018C/POM34] | 1.9 ± 0.036 | 2.25 ± 0.038 | 2 ± 0.05 | 1.98 ± 0.028
18 | KYSKLVDNVTLESYKTQ [SRP72] | 3.54 ± 0.15 | 3.22 ± 0.16 | 3.42 ± 0.1 | 3.22 ± 0.11
19 | AYEEEEENEDNDGNNRT [NUT1] | 3.25 ± 0.12 | 3.37 ± 0.11 | 3.47 ± 0.15 | 3.46 ± 0.068

Row | Sequence | protein stability index (doa10∆) | protein stability index (pdr5∆) | protein stability index (san1∆) | protein stability index (ubr1∆)
20 | SVIVKFHSEPDRDENWI [LIN1] | 2.69 ± 0.072 | 3.08 ± 0.071 | 2.96 ± 0.056 | 2.75 ± 0.044
21 | VSKFYDKINQLSVVKYL [RPN9] | 2.25 ± 0.12 | 1.75 ± 0.083 | 1.31 ± 0.11 | 1.7 ± 0.083
22 | FLVRYACEPTAEKFVPI [SIR3] | 2.55 ± 0.23 | 2.9 ± 0.097 | 2.75 ± 0.11 | 2.91 ± 0.1
23 | PVRTIVPISTSQTNNSF [SIR4] | 2.04 ± 0.04 | 2.2 ± 0.047 | 2.22 ± 0.052 | 2.28 ± 0.034
24 | HPFGHALVAGIERYPLK [RPL27A] | 2.53 ± 0.082 | 2.3 ± 0.098 | 2.49 ± 0.082 | 2.49 ± 0.062
25 | DEGLLNMVSLRGRNDTL [GRR1] | 2.55 ± 0.15 | 2.49 ± 0.14 | 2.51 ± 0.097 | 2.83 ± 0.17
26 | GTGKSQSGSNSGNNSKK [ROX3] | 3.37 ± 0.3 | – | 2.77 ± 0.2 | –
27 | GGDWERRNRYKTYYGIH [RPN7] | 1.24 ± 0.049 | 1.4 ± 0.074 | 1.29 ± 0.13 | 1.18 ± 0.044
28 | QDVDDAHAIDQMTWRQW [POP8] | 2.1 ± 0.058 | 1.99 ± 0.052 | 1.78 ± 0.069 | 2.5 ± 0.076
29 | KTSCVVEKRIGKIVSQR [RGR1] | 2.76 ± 0.061 | 2.77 ± 0.048 | 3.12 ± 0.045 | 2.85 ± 0.036
30 | HQHGDKVDIFEIPETGE [FAS2] | – | 2.75 ± 0.28 | – | 2.54 ± 0.069
31 | MEETEQKKIQINKEMGE [SMC3] | – | – | – | 2.49 ± 0.26
32 | RNSPFWWTNSHHDGKLW [PRP8] | 2.55 ± 0.069 | 2.85 ± 0.06 | 2.68 ± 0.041 | 2.78 ± 0.049
33 | DAIQAGIWNDLGSGSNV [PUP1] | 2.71 ± 0.26 | – | – | –
34 | SGRTVISPDPNLSIDEV [RPO31] | 2.4 ± 0.063 | 1.97 ± 0.06 | 2.03 ± 0.099 | 1.92 ± 0.057
35 | HDTLNNEIANSIIQSKQ [BRR2] | 2.76 ± 0.051 | 2.95 ± 0.064 | 2.88 ± 0.058 | 2.88 ± 0.052
36 | NGNWEVGVHIADVTHFV [DIS3] | 2.55 ± 0.052 | 2.09 ± 0.061 | 2.9 ± 0.047 | 2.62 ± 0.048
37 | NIELHSLYTSREPRVVS [PUP1] | 2.56 ± 0.1 | 3.1 ± 0.068 | 3.22 ± 0.09 | 3.07 ± 0.078
38 | IDPSVTMMTVEEKPDVT [RPT1] | 2.62 ± 0.097 | 2.58 ± 0.059 | 1.93 ± 0.13 | 2.38 ± 0.05

Row | Sequence | protein stability index (doa10∆) | protein stability index (pdr5∆) | protein stability index (san1∆) | protein stability index (ubr1∆)
39 | GALVDRTQPWSIMPDLY [RPS0A] | 2.71 ± 0.09 | 2.82 ± 0.091 | 2.87 ± 0.062 | 3.11 ± 0.032
40 | SNGGNNMLPQRQSSVGS [SNF2] | 1.76 ± 0.067 | 2.18 ± 0.097 | 2.19 ± 0.076 | 2.55 ± 0.045
41 | DVKKRTYEAIDVPGREL [RPB2] | 1.99 ± 0.15 | 3.35 ± 0.16 | 2.62 ± 0.23 | 3.57 ± 0.17
42 | RAPQQSVLQLFQSVQLN [SMC2] | 2 ± 0.05 | 1.98 ± 0.044 | 2.24 ± 0.051 | 1.91 ± 0.034
43 | SNLAATKSMVKIAEQYS [RPN11] | 2.83 ± 0.075 | 2.73 ± 0.064 | 3.04 ± 0.051 | 2.98 ± 0.063
44 | HYVVLDTNVVLQAIDLL [DIS3] | 2.53 ± 0.093 | 2.49 ± 0.073 | 2.23 ± 0.1 | 2.39 ± 0.064
45 | VTIWYRAPELLLGARHY [SSN3] | 1.9 ± 0.1 | 1.85 ± 0.096 | 2.07 ± 0.15 | 1.9 ± 0.072
46 | PEGLLKSLWDYVKKNTE [TAF14] | 3.01 ± 0.17 | 2.12 ± 0.076 | – | 3.13 ± 0.094
47 | ALERNWPIVNSKVYFNN [RPN12] | 1.93 ± 0.08 | 1.7 ± 0.072 | 1.38 ± 0.12 | 1.9 ± 0.087
48 | IPRNSPLSDLKKRSQAK [RPC82] | 2.65 ± 0.26 | 3.17 ± 0.22 | – | –
49 | NSIRAREVENSVSLLNS [SMC1] | 2.55 ± 0.064 | 2.78 ± 0.06 | 3.09 ± 0.071 | 3.08 ± 0.069
50 | NEDENIQLIKILNSHFD [YJL041W/NSP1] | 2.77 ± 0.052 | 2.98 ± 0.056 | 3.142 ± 0.03 | 2.85 ± 0.037
51 | AVVFKPFKGEVVDGTVV [RPB7] | 3.05 ± 0.1 | 3.03 ± 0.048 | 2.79 ± 0.062 | 2.79 ± 0.068
52 | VTKITDMLLHKYYIVSS [SRB8] | 1.45 ± 0.076 | 1.14 ± 0.068 | 1.65 ± 0.15 | 1.57 ± 0.077
53 | IRTRRAAELLDKRIVIS [DIS3] | 1.5 ± 0.11 | 1.81 ± 0.1 | 1.51 ± 0.17 | 1.84 ± 0.1
54 | ALRALARSGLRIGRIED [RPS14A] | – | 2.12 ± 0.096 | 2.33 ± 0.1 | 2.01 ± 0.071
55 | KYRQTKLSKEERAARVA [RPL5] | 2.7 ± 0.11 | 3.05 ± 0.071 | 2.97 ± 0.13 | 2.65 ± 0.07
56 | PLDDAGTIGWDLGITEK [MCD1] | – | – | – | 3.05 ± 0.16
